Among the data in paper PMC7218058 are Kd, other: avidity (AUC) and fold reduction of affinity against other IgG3 allotypes values, retold here.

For orientation: Kd means the equilibrium constant for the complex coming apart.

Test [1] concerns the target human FcγRIIIa 158Phe, biotinylated (UniProt P08637). Nature of the test: SPR. The note with it: read off a plot.
Test [2] deals with human FcγRIIIa 158Val, biotinylated. Nature of the test: SPR. As to conditions: read off a plot.
Test [3] concerns the target human FcγRIIa 131His, biotinylated (UniProt P12318). In words: cSPR (cellular SPR, opsonized RBCs). As to conditions: receptor density of 30 nM and opsonization concentration of 2.5 μg/ml; parent: est. 310; read off a plot.
Test [4] has as its target human FcγRIIIa 158Phe, biotinylated (UniProt P08637). Nature of the test: cSPR (cellular SPR, opsonized RBCs). As to conditions: receptor density of 30 nM and opsonization concentration of 0.625 μg/ml; parent: est. 250; read off a plot.
The target in test [5] is human FcγRIIa 131Arg, biotinylated. Nature of the test: cSPR (cellular SPR, opsonized RBCs). The note with it: receptor density of 30 nM and opsonization concentration of 0.625 μg/ml; parent: est. 210; read off a plot.
Test [6] concerns the target human FcγRIIIa 158Val, biotinylated. In words: cSPR (cellular SPR, opsonized RBCs). The note with it: receptor density of 10 nM and opsonization concentration of 1.25 μg/ml; parent: est. 200; read off a plot.
The next test deals with anti-kappa nanobody. Nature of the test: cSPR (cellular SPR, opsonized RBCs). The note with it: density of 1 nM and opsonization concentration of 0.625 μg/ml; parent: est. 610; read off a plot.
For test [7], the target named is human FcγRIIIa 158Phe, biotinylated (UniProt P08637). Nature of the test: SPR; IBIS MX96; biotinylated human FcγR spotted on a SensEye G-Streptavidin sensor at 1, 3, 10 and 30 nM; 2-fold dilution series of IgG (0.49 to 1000 nM) flowed over; Kd by equilibrium fitting, interpolated to Rmax 500. A general note: Surface plasmon resonance follows binding to a sensor surface in real time, without labels.

In test [8] the target is human FcγRIIIa 158Val, biotinylated (human). The description is as above.

Chain of human FcγRIIIa 158Phe, biotinylated (P08637 17-208): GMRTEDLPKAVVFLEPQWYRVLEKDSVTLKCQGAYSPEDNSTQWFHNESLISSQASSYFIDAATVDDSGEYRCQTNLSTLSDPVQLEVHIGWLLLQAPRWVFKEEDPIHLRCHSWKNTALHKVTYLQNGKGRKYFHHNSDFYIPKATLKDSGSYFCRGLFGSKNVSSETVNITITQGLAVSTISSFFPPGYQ
Chain of human FcγRIIa 131His, biotinylated (P12318 34-217): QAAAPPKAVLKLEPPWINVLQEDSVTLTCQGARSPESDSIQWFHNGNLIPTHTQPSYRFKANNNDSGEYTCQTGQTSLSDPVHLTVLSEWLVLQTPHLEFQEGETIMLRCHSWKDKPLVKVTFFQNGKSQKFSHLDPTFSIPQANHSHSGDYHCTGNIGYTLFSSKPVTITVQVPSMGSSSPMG

On to anti-RhD IgG1 allotype IGHG1*03 R292W, for which the Kd in [1] (parent: est. 1.5e-6) was 4400 nM; in test [2] (parent: est. 2.7e-7), 470 nM.

As to anti-RhD IgG3 allotype IGHG3*01 R292W, the dissociation constant Kd in test [1] (parent: est. 8.1e-7) came out at 1900 nM; in [2] (parent: est. 1.7e-7) it was 340 nM.

Regarding “anti-RhD IgG3 allotype IGHG3*12 F296Y; P291L”, the other: avidity (AUC) in [3] is 45; in test [4], 50; in test [5] it was 11; in test [6], 55; with anti-kappa nanobody, 640. The equilibrium dissociation constant (Kd) in test [2] (parent: est. 2.5e-7) amounted to 210 nM.

Turning to anti-RhD IgG3 allotype IGHG3*17 R292A, the Kd is 860 nM in test [1] (parent: est. 9.2e-7) and 220 nM in test [2] (parent: est. 2.1e-7).

Consider anti-RhD IgG3 allotype IGHG3*17 R292E, for which the Kd worked out at 2700 nM in test [1] (parent: est. 9.2e-7) and 580 nM in test [2] (parent: est. 2.1e-7).

As to anti-RhD IgG3 allotype IGHG3*17 R292H, the Kd in [1] (parent: est. 9.2e-7) came out at 810 nM; in test [2] (parent: est. 2.1e-7), 200 nM.

anti-RhD IgG3 allotype IGHG3*17 R292L: the dissociation constant Kd in test [1] (parent: est. 9.2e-7) stood at 860 nM; in test [2] (parent: est. 2.1e-7), 210 nM.

For the substance anti-RhD IgG3 allotype IGHG3*17 R292W, the Kd in test [1] (parent: est. 9.2e-7) stood at 2800 nM; in [2] (parent: est. 2.1e-7), 540 nM.

For “anti-RhD IgG3 allotype IGHG3*18 (antibody)”, the fold reduction of affinity against other IgG3 allotypes in test [7] and in test [8] was 3 fold each time.

Take anti-RhD IgG3 allotype IGHG3*18 W292R: the dissociation constant (Kd) was 880 nM in test [1] (parent: est. 2.6e-6) and 210 nM in test [2] (parent: est. 5.4e-7).

Take “anti-RhD IgG3 allotype IGHG3*19 (antibody)”: the fold reduction of affinity against other IgG3 allotypes in [7] and in test [8] was 3 fold throughout.
